Experimental data: patent US20030235857A1 (WHITEHEAD INSTITUTE FOR BIOMEDICAL RESEARCH A DELAWARE, published 2003)

B1: Mga1 fused to the Gal4 activation domain (other, Saccharomyces cerevisiae, UniProt P53050 1-456, looked up, not shown: large carriers)
chain: MQPKTFVHQLHAILLEPEVNKWIYWSPTDNTVFFLKPYDPNFSTHVLKRYFKHGNVNSFVRQLHMYGFHKLSHPSPDQSSANNGNVKELVEWKFTHPSGFFFKEANAGILNKIQRKSTGVGKDGKRKNILSPISVSYVDASRLNVLSQQSGPVSAREPSNMFMGSPVHYSTSQSPPHISIPQQQQSSGPYLISSLPPQQPTVNMMRRQSISARMMNSYDYPNQFSTQDSIVQPQQPQQVLSPQALSGPPMKKSGTLSSTDDLKTTSLPIVNYPMPYHPGAFAQQQQQQQQPLPTVPPYSSYSTPFPSMMNSLSNSASNSPALGVCNNNVTLPKKSNISERQALDNHIQTLKNSLSTITDLIEKHINSASQDENKTLTNDAMNKDLRTSLSLLQNSKEEIIQLESKWMSMQSVKTTALPLQETTNTSSTLTSLTSSIIPKSIPIITKGEVATKPASY
notes: also called YGR249w
B2: Tpk1 fused to the Gal4 DNA binding domain (enzyme, UniProt P04386 1-147, looked up)
chain: MKLLSSIEQACDICRLKKLKCSKEKPKCAKCLKNNWECRYSPKTKRSPLTRAHLTEVESRLERLEQLFLLIFPREDLDMILKMDSLQDIKALLTGLFVQDNVNKDAVTDRLASVETDMPLTLRQHRISATSSSEESSNKGQRQLTVSMSTEEQNGGGQKSLDDRQGEESQKGETSERETTATESGNESKSVEKEGGETQEKPKQPHVTYYNEEQYKQFIAQARVTSGKYSLQDFQILRTLGTGSFGRVHLIRSRHNGRYYAMKVLKKEIVVRLKQVEHTNDERLMLSIVTHPFIIRMWGTFQDAQQIFMIMDYIEGGELFSLLRKSQRFPNPVAKFYAAEVCLALEYLHSKDIIYRDLKPENILLDKNGHIKITDFGFAKYVPDVTYTLCGTPDYIAPEVVSTKPYNKSIDWWSFGILIYEMLAGYTPFYDSNTMKTYEKILNAELRFPPFFNEDVKDLLSRLITRDLSQRLGNLQNGTEDVKNHPWFKEVVWEKLLSRNIETPYEPPIQQGQGDTSQFDKYPEEDINYGVQGEDPYADLFRDF
notes: Two-hybrid bait used for retesting positive clones
B3: Tpk3 fused to the Gal4 DNA binding domain (enzyme, UniProt P04386 1-147, looked up)
chain: MKLLSSIEQACDICRLKKLKCSKEKPKCAKCLKNNWECRYSPKTKRSPLTRAHLTEVESRLERLEQLFLLIFPREDLDMILKMDSLQDIKALLTGLFVQDNVNKDAVTDRLASVETDMPLTLRQHRISATSSSEESSNKGQRQLTVSMYVDPMNNNEIRKLSITAKTETTPDNVGQDIPVNAHSVHEECSSNTPVEINGRNSGKLKEEASAGICLVKKPMLQYRDTSGKYSLSDFQILRTLGTGSFGRVHLIRSNHNGRFYALKTLKKHTIVKLKQVEHTNDERRMLSIVSHPFIIRMWGTFQDSQQVFMVMDYIEGGELFSLLRKSQRFPNPVAKFYAAEVCLALEYLHSKDIIYRDLKPENILLDKNGHIKITDFGFAKYVPDVTYTLCGTPDYIAPEVVSTKPYNKSVDWWSFGVLIYEMLAGYTPFYNSNTMKTYENILNAELKFPPFFHPDAQDLLKKLITRDLSERLGNLQNGSEDVKNHPWFNEVIWEKLLARYIETPYEPPIQQGQGDTSQFDRYPEEEFNYGIQGEDPYMDLMKEF
notes: Two-hybrid bait used for retesting positive clones; also called YKL166c

What was measured:
Assay in all cases: yeast two-hybrid, GAL4-ADE2 reporter, growth without adenine
[1] = molecular target: B2
Description: (§1) Other additional members of these signal transduction cascades are identified through a variety of standard techniques. First, enhancers and suppressors of phenotypes of mutant strains are isolated using standard techniques known to those skilled in the art (Ausubel, supra). Second, proteins which interact with pathway members are isolated using yeast two-hybrid methods (Fields and Song, Nature 1989, 340:245-246; Chien et al., Proc. Natl. Acad. Sci. USA 1991, 88:9578-9582; Brent and Finley, Annu. Rev. Genet. 1997, 31:663-704). In one example, proteins which specifically interact with an A kinase catalytic subunit Tpk2, and not with related proteins Tpk1 and Tpk3 were identified and shown to be important for pseudohyphal development. […] Similarly, haploid tpk2 mutants were defective for invasive growth and tpk3 mutants were hyperinvasive (FIG. 2A). tpk1 mutants were indistinguishable from wild-type strains as both haploids and diploids. The accentuated filamentation and invasion phenotypes of tpk3 mutants required a functional Tpk2 as tpk2 tpk3 mutants had the same phenotype as tpk2 single mutants. As Tpk2 appeared to be uniquely required for pseudohyphal growth, we used a two-hybrid screen to identify proteins that interact specifically with Tpk2. The intact open reading frame of TPK2 was fused to coding sequence for the Gal4 DNA binding domain and used to screen a library of yeast genomic fragments fused to coding sequence for the Gal4 transcriptional activation domain. Activation of the GAL4-ADE2 reporter, leading to adenine-independent growth of an ade-strain was taken as preliminary evidence for an interaction between the Gal4 DNA binding domain:Tpk2 fusion and the Tpk2 interacting protein fused to the Gal4 activation domain. Positive clones were then retested in the two-hybrid assay with Tpk1, Tpk2, Tpk3, or Dph1 fused to the Gal4 DNA binding domain. DPH1, a gene required for diphthamide biosynthesis, as used to control for interactions that were not specific to the PKA isoforms.

[2] = molecular target: B3
Description: as §1

[3] = molecular target: T1, Sfl1 fused to the Gal4 activation domain (Saccharomyces cerevisiae, UniProt P20134 1-766, limits assumed)
T1 construct: also called YOR140w
T1 sequence (looked up): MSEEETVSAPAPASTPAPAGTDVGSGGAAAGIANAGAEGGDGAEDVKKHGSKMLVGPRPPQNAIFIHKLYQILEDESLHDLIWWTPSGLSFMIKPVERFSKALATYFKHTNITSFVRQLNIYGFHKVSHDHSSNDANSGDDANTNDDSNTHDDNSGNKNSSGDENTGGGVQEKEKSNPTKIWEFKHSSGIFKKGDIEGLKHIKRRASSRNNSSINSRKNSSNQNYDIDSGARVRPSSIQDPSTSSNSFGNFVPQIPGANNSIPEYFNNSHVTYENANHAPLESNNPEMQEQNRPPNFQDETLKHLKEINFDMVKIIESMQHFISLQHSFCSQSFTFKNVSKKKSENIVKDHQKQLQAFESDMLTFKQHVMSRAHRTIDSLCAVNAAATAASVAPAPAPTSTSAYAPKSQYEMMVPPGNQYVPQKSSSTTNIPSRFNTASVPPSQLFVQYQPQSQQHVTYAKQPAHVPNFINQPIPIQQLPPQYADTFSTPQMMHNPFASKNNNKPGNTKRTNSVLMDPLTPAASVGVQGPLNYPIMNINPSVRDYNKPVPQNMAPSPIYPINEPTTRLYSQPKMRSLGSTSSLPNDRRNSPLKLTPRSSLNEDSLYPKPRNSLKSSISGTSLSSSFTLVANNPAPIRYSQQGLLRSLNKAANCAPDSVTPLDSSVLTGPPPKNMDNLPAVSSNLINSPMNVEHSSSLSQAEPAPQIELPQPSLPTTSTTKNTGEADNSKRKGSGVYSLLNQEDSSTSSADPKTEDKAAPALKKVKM
Description: as §1

Row | Binder | binding result [1] | binding result [2] | binding result [3]
1 | B1 | no binding | no binding | –
2 | B2 | – | – | no binding
3 | B3 | – | – | no binding
